Here are results for seven sequences from the supplement of paper PMC11246515.

± gives the standard deviation of the averaged measurements.

This series is described as follows: total protein half-life in vivo (active degradation + dilution); higher = more stable protein.
Where [1] appears, read: E. coli NCM3722 delta-clpP delta-lon delta-hslV, growth: N-lim chemostat, doubling time 6 h.
[2] abbreviates: E. coli NCM3722 delta-clpP, growth: N-lim chemostat, doubling time 6 h.
Setting [3] is: E. coli NCM3722 delta-hslV, growth: N-lim chemostat, doubling time 6 h.
[4] abbreviates: E. coli NCM3722 delta-lon, growth: N-lim chemostat, doubling time 6 h.
The mark [5] stands for this setting: E. coli NCM3722 delta-smpB, growth: N-lim chemostat, doubling time 6 h.
Where [6] appears, read: wild type E. coli NCM3722, growth: C-lim chemostat, doubling time 3 h.
Where [7] appears, read: wild type E. coli NCM3722, growth: C-lim chemostat, doubling time 6 h.
[8] abbreviates: wild type E. coli NCM3722, growth: C-lim chemostat, doubling time 12 h.
Setting [9] is: wild type E. coli NCM3722, growth: N-lim chemostat, doubling time 6 h.
The mark [10] stands for this setting: wild type E. coli NCM3722, growth: N-lim chemostat, doubling time 12 h.
Where [11] appears, read: wild type E. coli NCM3722, growth: P-lim chemostat, doubling time 6 h.
The mark [12] stands for this setting: wild type E. coli NCM3722, growth: P-lim chemostat, doubling time 12 h.

“MKVMRTTVATVVAATLSMSAFSVFAEASLTGAGATFPAPVYAKWADTYQKETGNKVNYQGIGSSGGVKQIIANTVDFGASDAPLSDEKLAQEGLFQFPTVIGGVVLAVNIPGLKSGELVLDGKTLGDIYLGKIKKWDDEAIAKLNPGLKLPSQNIAVVRRADGSGTSFVFTSYLAKVNEEWKNNVGTGSTVKWPIGLGGKGNDGIAAFVQRLPGAIGYVEYAYAKQNNLAYTKLISADGKPVSPTEENFANAAKGADWSKTFAQDLTNQKGEDAWPITSTTFILIHKDQKKPEQGTEVLKFFDWAYKTGAKQANDLDYASLPDSVVEQVRAAWKTNIKDSSGKPLY [P0AG82]”: the “total protein half-life in vivo” value was 4.1 ± 0.22 h under setting [1]; 5.18 ± 0.54 h under setting [2]; 6.12 ± 0.3 h under setting [3]; 6.31 ± 0.76 h under setting [4]; 6.08 ± 0.12 h under setting [5]; 3.42 ± 0.057 h under setting [6]. For the same sequence, the “total protein half-life in vivo” value under setting [7] turned out to be 6.04 ± 0.31 h; the “total protein half-life in vivo” value under setting [8] stood at 11.7 ± 0.42 h; the “total protein half-life in vivo” value under setting [9] came out at 6.11 ± 0.43 h; the “total protein half-life in vivo” value under setting [10] was found to be 12.9 ± 0.66 h; the “total protein half-life in vivo” value under setting [11] amounted to 5.67 ± 0.093 h; the “total protein half-life in vivo” value under setting [12] was 11.5 ± 0.23 h.
“MVTSCTGHVLDNQRATTRGVFSSGSHLVTLHFQPHPFFSCVTDAVNGARSRFSAFYPKANYGLQGSQPSDVRAHNRAANGACDEYKQLKVLSMGRQKAVIKARREAKRVLRRDSRSHKQREEESVTSLVQMGGVEAIGMARDSRDTSPILARNEAQLHYLKAIESKQLIFATGEAGCGKTWISAAKAAEALIHKDVDRIIVTRPVLQADEDLGFLPGDIAEKFAPYFRPVYDVLVRRLGASFMQYCLRPEIGKVEIAPFAYMRGRTFENAVVILDEAQNVTAAQMKMFLTRLGENVTVIVNGDITQCDLPRGVCSGLSDALERFEEDEMVGIVRFGKEDCVRSALCQRTLHAYS [P0A9K1]”: the “total protein half-life in vivo” value by setting is: under setting [1], 5.82 ± 0.65 h; under setting [2], 1.96 ± 0.059 h; under setting [3], 0.55 ± 0.47 h; under setting [4], 0.666 ± 0.43 h; under setting [5], 0.308 ± 0.011 h; under setting [6], 0.166 ± 0.058 h. Besides, the “total protein half-life in vivo” value came out at 0.347 ± 0.25 h under setting [7]; 0.864 h under setting [8]; 0.735 ± 0.45 h under setting [9]; 0.571 h under setting [10]; 0.355 h under setting [11]; 1.23 ± 0.8 h under setting [12].
In the case of “MKQHQSADNSQGQLYIVPTPIGNLADITQRALEVLQAVDLIAAEDTRHTGLLLQHFGINARLFALHDHNEQQKAETLLAKLQEGQNIALVSDAGTPLINDPGYHLVRTCREAGIRVVPLPGPCAAITALSAAGLPSDRFCYEGFLPAKSKGRRDALKAIEAEPRTLIFYESTHRLLDSLEDIVAVLGESRYVVLARELTKTWETIHGAPVGELLAWVKEDENRRKGEMVLIVEGHKAQEEDLPADALRTLALLQAELPLKKAAALAAEIHGVKKNALYKYALEQQG”, the “total protein half-life in vivo” value under setting [1] is 6.24 ± 1.1 h; the “total protein half-life in vivo” value under setting [2] came to 5.77 ± 0.73 h; the “total protein half-life in vivo” value under setting [3] is 5.85 ± 0.46 h; the “total protein half-life in vivo” value under setting [4] was found to be 5.1 ± 0.5 h; the “total protein half-life in vivo” value under setting [5] is 5.25 ± 0.13 h; the “total protein half-life in vivo” value under setting [6] was determined as 3.41 ± 0.11 h. The “total protein half-life in vivo” value was 11.8 ± 2.3 h under setting [8]; 5.57 ± 0.17 h under setting [9]; 10.5 ± 0.56 h under setting [10]; 5.46 ± 0.11 h under setting [11]; 12.4 ± 0.41 h under setting [12].
Regarding “MTPILNHYFARINWSGAAAVNIDTLRALHLKHNCTIPFENLDVLLPREIQLDNQSPEEKLVIARRGGYCFEQNGVFERVLRELGFNVRSLLGRVVLSNPPALPPRTHRLLLVELEEEKWIADVGFGGQTLTAPIRLVSDLVQTTPHGEYRLLQEGDDWVLQFNHHQHWQSMYRFDLCEQQQSDYVMGNFWSAHWPQSHFRHHLLMCRHLPDGGKLTLTNFHFTHYENGHAVEQRNLPDVASLYAVMQEQFGLGVDDAKHGFTVDELALVMAAFDTHPEAGK”, the “total protein half-life in vivo” value under setting [2] is 2.34 ± 0.39 h; the “total protein half-life in vivo” value under setting [3] came out at 3.1 h; the “total protein half-life in vivo” value under setting [4] was 4.618 ± 0.018 h; the “total protein half-life in vivo” value under setting [5] was 2.15 ± 0.18 h; the “total protein half-life in vivo” value under setting [7] turned out to be 2.81 h; the “total protein half-life in vivo” value under setting [8] stood at 4.65 h. The “total protein half-life in vivo” value came to 3.11 ± 0.3 h under setting [9], 5.26 ± 0.66 h under setting [10] and 3.88 h under setting [12].
As to “MKRVLFFLLMIFVSFGVIADCEIQAKDHDCFTIFAKGTIFSAFPVLNNKAMWRWYQNEDIGEYYWQTELGTCKNNKFTPSGARLLIRVGSLRLNENHAIKGTLQELINTAEKTAFLGDRFRSYIRAGIYQKKSSDPVQLLAVLDNSIMVKYFKDEKPTYARMTAHLPNKNESYECLIKIQHELIRSEEK”, the “total protein half-life in vivo” value amounted to 1.81 h under setting [1], 1.13 h under setting [5], 10.3 h under setting [8] and 4.57 h under setting [10].
As to “MKRWPVFPRSLRQLVMLAFLLILLPLLVLAWQAWQSLNALSDQAALVNRTTLIDARRSEAMTNAALEMERSYRQYCVLDDPTLAKVYQSQRKRYSEMLDAHAGVLPDDKLYQALRQDLHNLAQLQCNNSGPDAAAAARLEAFASANTEMVQATRTVVFSRGQQLQREIAERGQYFGWQSLVLFLVSLVMVLLFTRMIIGPVKNIERMINRLGEGRSLGNSVSFSGPSELRSVGQRILWLSERLSWLESQRHQFLRHLSHELKTPLASMREGTELLADQVVGPLTPEQKEVVSILDSSSRNLQKLIEQLLDYNRKQADSAVELENVELAPLVETVVSAHSLPARAKMMHTDVDLKATACLAEPMLLMSVLDNLYSNAVHYGAESGNICLRSSLHGARVYIDVINTGTPIPQEERAMIFEPFFQGSHQRKGAVKGSGLGLSIARDCIRRMQGELYLVDESGQDVCFRIELPSSKNTK”, the “total protein half-life in vivo” value worked out at 6.52 ± 0.67 h under setting [1]; 6.72 ± 0.21 h under setting [2]; 6.56 ± 0.21 h under setting [3]; 6.41 ± 0.28 h under setting [4]; 3.12 ± 0.098 h under setting [6]; 10.8 ± 0.2 h under setting [8]. For the same sequence, the “total protein half-life in vivo” value is, setting by setting: under setting [9], 6.16 ± 0.12 h; under setting [10], 13.1 ± 1 h; under setting [11], 6.8109 ± 0.0031 h; under setting [12], 12.6 ± 0.89 h.
For “MTQNIRPLPQFKYHPKPLETGAFEQDKTVECDCCEQQTSVYYSGPFYCVDEVEHLCPWCIADGSAAEKFAGSFQDDASIEGVEFEYDEEDEFAGIKNTYPDEMLKELVERTPGYHGWQQEFWLAHCGDFCVFIGYVGWNDIKDRLDEFANLEEDCENFGIRNSDLAKCLQKGGHCQGYLFRCLHCGKLRLWGDFS”, under setting [1], the “total protein half-life in vivo” value worked out at 5.27 h.
